These results are taken from the supplement of paper PMC9112550, “Optimization of the antimicrobial peptide Bac7 by deep mutational scanning” (BMC Biology, 2022).
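Note: peptides expressed intracellularly from a pBAD plasmid library in pooled LB shake-flask culture, induced with 0.3% L-arabinose, DNA abundance read by NGS, three biological replicates, DESeq2 with apeglm shrinkage.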

For this data set, the system named is Escherichia coli TOP10. As to the kind of experiment: shrunken log2 fold change of peptide-encoding DNA abundance (4.5 h post-induction vs induction); higher = less antimicrobial activity (less host growth inhibition). The following applies: time post-induction: 4.5 h; library: site-saturation at positions 5, 18, 19, 20.
RRIRPRPPRLPRPRPRPVINPRP: the “shrunken log2 fold change” value was -0.626.

Take RRIRRRPPRLPRPRPRPQGLPRP: the “shrunken log2 fold change” value is 0.143.

Consider RRIRKRPPRLPRPRPRPRCYPRP, for which the “shrunken log2 fold change” value is -0.181.

For RRIRYRPPRLPRPRPRPRQDPRP, the “shrunken log2 fold change” value is -0.216.

Take RRIRQRPPRLPRPRPRPGLAPRP: the “shrunken log2 fold change” value was 0.197.

As for RRIRMRPPRLPRPRPRPVLCPRP, the “shrunken log2 fold change” value was 0.182.

As for RRIRGRPPRLPRPRPRPRQRPRP, the “shrunken log2 fold change” value came to 0.815.

With RRIRDRPPRLPRPRPRPMPRPRP, the “shrunken log2 fold change” value amounted to 0.26.

Consider RRIRARPPRLPRPRPRPVKRPRP, for which the “shrunken log2 fold change” value was found to be 0.138.

With RRIRARPPRLPRPRPRPLVYPRP, the “shrunken log2 fold change” value is -0.372.

As to RRIRLRPPRLPRPRPRPHYPPRP, the “shrunken log2 fold change” value was -0.736.

Consider RRIRCRPPRLPRPRPRPDYRPRP, for which the “shrunken log2 fold change” value was -0.0343.

RRIRHRPPRLPRPRPRPCVLPRP: the “shrunken log2 fold change” value was -0.14.

For the sequence RRIRCRPPRLPRPRPRPMRLPRP, the “shrunken log2 fold change” value came out at 0.0914.

In the case of RRIRERPPRLPRPRPRPTKFPRP, the “shrunken log2 fold change” value was -0.364.

For the sequence RRIRMRPPRLPRPRPRPAQPPRP, the “shrunken log2 fold change” value amounted to 0.586.

Regarding RRIRVRPPRLPRPRPRPDFWPRP, the “shrunken log2 fold change” value worked out at 0.239.

As to RRIRIRPPRLPRPRPRPHKPPRP, the “shrunken log2 fold change” value was -0.00445.

Regarding RRIRYRPPRLPRPRPRPWASPRP, the “shrunken log2 fold change” value was -0.154.

On to RRIRYRPPRLPRPRPRPGLFPRP, for which the “shrunken log2 fold change” value is -0.0365.

Take RRIRGRPPRLPRPRPRPRAHPRP: the “shrunken log2 fold change” value is 0.857.

As for RRIRSRPPRLPRPRPRPTESPRP, the “shrunken log2 fold change” value stood at 0.0325.

Turning to RRIRFRPPRLPRPRPRPNCWPRP, the “shrunken log2 fold change” value was -0.358.

Regarding RRIRGRPPRLPRPRPRPLDYPRP, the “shrunken log2 fold change” value was determined as 0.0074.

As for RRIRLRPPRLPRPRPRPEFIPRP, the “shrunken log2 fold change” value is 0.0915.

For the sequence RRIRKRPPRLPRPRPRPKPQPRP, the “shrunken log2 fold change” value was 0.927.

RRIRIRPPRLPRPRPRPYMTPRP: the “shrunken log2 fold change” value was -1.6.

Turning to RRIRIRPPRLPRPRPRPAVHPRP, the “shrunken log2 fold change” value was -0.145.

On to RRIRPRPPRLPRPRPRPGPEPRP, for which the “shrunken log2 fold change” value worked out at 0.213.

For the sequence RRIRMRPPRLPRPRPRPYEWPRP, the “shrunken log2 fold change” value was -0.0304.

With RRIRQRPPRLPRPRPRPLQMPRP, the “shrunken log2 fold change” value came to 0.122.

With RRIRERPPRLPRPRPRPHQHPRP, the “shrunken log2 fold change” value was -0.449.

In the case of RRIRSRPPRLPRPRPRPLKGPRP, the “shrunken log2 fold change” value was found to be 0.0623.

Take RRIRIRPPRLPRPRPRPYRPPRP: the “shrunken log2 fold change” value is -0.0527.

As to RRIRQRPPRLPRPRPRPPTRPRP, the “shrunken log2 fold change” value stood at 0.398.

Take RRIRVRPPRLPRPRPRPTMCPRP: the “shrunken log2 fold change” value turned out to be 0.15.

As for RRIRPRPPRLPRPRPRPDWIPRP, the “shrunken log2 fold change” value was -0.444.

Regarding RRIRQRPPRLPRPRPRPSVCPRP, the “shrunken log2 fold change” value was -0.14.

RRIRARPPRLPRPRPRPSQAPRP: the “shrunken log2 fold change” value was found to be 0.0359.

For the sequence RRIRNRPPRLPRPRPRPDFRPRP, the “shrunken log2 fold change” value was -0.0186.

With RRIRGRPPRLPRPRPRPHNSPRP, the “shrunken log2 fold change” value is -0.0747.

On to RRIRPRPPRLPRPRPRPRSCPRP, for which the “shrunken log2 fold change” value was determined as 0.395.

With RRIRGRPPRLPRPRPRPASVPRP, the “shrunken log2 fold change” value is 0.454.

RRIRPRPPRLPRPRPRPMLGPRP: the “shrunken log2 fold change” value was 0.252.

On to RRIRCRPPRLPRPRPRPSYTPRP, for which the “shrunken log2 fold change” value was -0.748.

For the sequence RRIRPRPPRLPRPRPRPLMWPRP, the “shrunken log2 fold change” value is 0.432.

Consider RRIRQRPPRLPRPRPRPPMEPRP, for which the “shrunken log2 fold change” value was -0.22.

Take RRIRIRPPRLPRPRPRPTWGPRP: the “shrunken log2 fold change” value worked out at 0.0223.

Regarding RRIRQRPPRLPRPRPRPMPYPRP, the “shrunken log2 fold change” value is -0.0574.

As for RRIRGRPPRLPRPRPRPCVMPRP, the “shrunken log2 fold change” value was 0.516.

For the sequence RRIRYRPPRLPRPRPRPQGEPRP, the “shrunken log2 fold change” value was -0.325.

As for RRIRQRPPRLPRPRPRPEHPPRP, the “shrunken log2 fold change” value stood at 0.0713.

For the sequence RRIRMRPPRLPRPRPRPAFAPRP, the “shrunken log2 fold change” value amounted to 0.738.

Regarding RRIRLRPPRLPRPRPRPAINPRP, the “shrunken log2 fold change” value was -0.157.

In the case of RRIRERPPRLPRPRPRPTMKPRP, the “shrunken log2 fold change” value is -0.0369.

RRIRTRPPRLPRPRPRPALSPRP: the “shrunken log2 fold change” value is -0.0737.

With RRIRNRPPRLPRPRPRPVVPPRP, the “shrunken log2 fold change” value was 0.0751.

As for RRIRLRPPRLPRPRPRPARQPRP, the “shrunken log2 fold change” value is 0.281.

RRIRLRPPRLPRPRPRPSHTPRP: the “shrunken log2 fold change” value is -0.258.

For the sequence RRIRSRPPRLPRPRPRPDRKPRP, the “shrunken log2 fold change” value is -0.0693.

In the case of RRIRQRPPRLPRPRPRPDGIPRP, the “shrunken log2 fold change” value amounted to 0.087.

For the sequence RRIRMRPPRLPRPRPRPPSIPRP, the “shrunken log2 fold change” value was found to be 0.411.

Regarding RRIRPRPPRLPRPRPRPAWLPRP, the “shrunken log2 fold change” value worked out at 0.513.

Regarding RRIRARPPRLPRPRPRPLWDPRP, the “shrunken log2 fold change” value was 0.022.

As to RRIRVRPPRLPRPRPRPFWMPRP, the “shrunken log2 fold change” value stood at 0.0403.

Regarding RRIRIRPPRLPRPRPRPPIWPRP, the “shrunken log2 fold change” value is -0.00949.

In the case of RRIRTRPPRLPRPRPRPCHWPRP, the “shrunken log2 fold change” value is -0.00233.

Turning to RRIRSRPPRLPRPRPRPMRHPRP, the “shrunken log2 fold change” value was 3.44.

Turning to RRIRIRPPRLPRPRPRPIQDPRP, the “shrunken log2 fold change” value is -0.205.

For the sequence RRIRCRPPRLPRPRPRPEMDPRP, the “shrunken log2 fold change” value turned out to be 0.0321.

Consider RRIRGRPPRLPRPRPRPMLIPRP, for which the “shrunken log2 fold change” value was found to be 0.312.

Turning to RRIRNRPPRLPRPRPRPNTCPRP, the “shrunken log2 fold change” value was -0.195.

With RRIRWRPPRLPRPRPRPRALPRP, the “shrunken log2 fold change” value came to 0.354.

On to RRIRIRPPRLPRPRPRPDEAPRP, for which the “shrunken log2 fold change” value worked out at 0.0301.

As for RRIRNRPPRLPRPRPRPAETPRP, the “shrunken log2 fold change” value is -0.119.

As for RRIRWRPPRLPRPRPRPYSTPRP, the “shrunken log2 fold change” value is -0.225.

Regarding RRIRGRPPRLPRPRPRPPEDPRP, the “shrunken log2 fold change” value worked out at 1.21.

As for RRIRLRPPRLPRPRPRPNACPRP, the “shrunken log2 fold change” value was determined as 0.127.

As to RRIRLRPPRLPRPRPRPDLIPRP, the “shrunken log2 fold change” value is -0.0276.

With RRIRWRPPRLPRPRPRPNSFPRP, the “shrunken log2 fold change” value is -0.0131.

As to RRIRQRPPRLPRPRPRPVTVPRP, the “shrunken log2 fold change” value was found to be 0.153.

Consider RRIRPRPPRLPRPRPRPGYHPRP, for which the “shrunken log2 fold change” value was -0.506.

RRIRHRPPRLPRPRPRPLDQPRP: the “shrunken log2 fold change” value is -0.116.

Regarding RRIRKRPPRLPRPRPRPMWDPRP, the “shrunken log2 fold change” value is -0.0178.

On to RRIRYRPPRLPRPRPRPTITPRP, for which the “shrunken log2 fold change” value was -0.665.

On to RRIRARPPRLPRPRPRPSSCPRP, for which the “shrunken log2 fold change” value is -0.0288.

In the case of RRIRQRPPRLPRPRPRPYNYPRP, the “shrunken log2 fold change” value is -1.44.

As for RRIRVRPPRLPRPRPRPKTYPRP, the “shrunken log2 fold change” value was 0.325.

For RRIRFRPPRLPRPRPRPFNKPRP, the “shrunken log2 fold change” value is -0.729.

RRIRSRPPRLPRPRPRPRNKPRP: the “shrunken log2 fold change” value was -0.0701.

With RRIRERPPRLPRPRPRPKSQPRP, the “shrunken log2 fold change” value was -0.0879.

For RRIRKRPPRLPRPRPRPCPFPRP, the “shrunken log2 fold change” value was -0.223.

RRIRVRPPRLPRPRPRPLLIPRP: the “shrunken log2 fold change” value is -0.304.

Consider RRIRQRPPRLPRPRPRPFTAPRP, for which the “shrunken log2 fold change” value is -0.183.

For the sequence RRIRLRPPRLPRPRPRPRITPRP, the “shrunken log2 fold change” value is -0.027.

In the case of RRIRQRPPRLPRPRPRPTNNPRP, the “shrunken log2 fold change” value is -0.547.

For RRIRMRPPRLPRPRPRPSIYPRP, the “shrunken log2 fold change” value is -0.726.

In the case of RRIRGRPPRLPRPRPRPYRGPRP, the “shrunken log2 fold change” value is -0.186.

With RRIRGRPPRLPRPRPRPCWGPRP, the “shrunken log2 fold change” value amounted to 0.157.

Take RRIRDRPPRLPRPRPRPLHYPRP: the “shrunken log2 fold change” value is -0.0982.

As to RRIRQRPPRLPRPRPRPDVSPRP, the “shrunken log2 fold change” value is 0.0409.

Regarding RRIRIRPPRLPRPRPRPHSNPRP, the “shrunken log2 fold change” value is -0.502.

As for RRIRRRPPRLPRPRPRPMKFPRP, the “shrunken log2 fold change” value was found to be 0.212.

Regarding RRIRWRPPRLPRPRPRPHFAPRP, the “shrunken log2 fold change” value is 0.046.

On to RRIRMRPPRLPRPRPRPFKPPRP, for which the “shrunken log2 fold change” value is -0.119.

Turning to RRIRWRPPRLPRPRPRPSVQPRP, the “shrunken log2 fold change” value was found to be 0.128.

Turning to RRIRRRPPRLPRPRPRPETCPRP, the “shrunken log2 fold change” value was -0.00655.

Turning to RRIRYRPPRLPRPRPRPSHTPRP, the “shrunken log2 fold change” value is -1.39.

For RRIRMRPPRLPRPRPRPCHTPRP, the “shrunken log2 fold change” value turned out to be 0.0555.

RRIRARPPRLPRPRPRPPFEPRP: the “shrunken log2 fold change” value was determined as 0.504.

Consider RRIRNRPPRLPRPRPRPPLLPRP, for which the “shrunken log2 fold change” value was 0.125.

Take RRIRSRPPRLPRPRPRPWYQPRP: the “shrunken log2 fold change” value was -0.314.

As for RRIRTRPPRLPRPRPRPGHWPRP, the “shrunken log2 fold change” value was 0.0708.

As for RRIRVRPPRLPRPRPRPHNMPRP, the “shrunken log2 fold change” value was -0.389.

As for RRIRYRPPRLPRPRPRPSNKPRP, the “shrunken log2 fold change” value was -0.953.

For RRIRGRPPRLPRPRPRPMPYPRP, the “shrunken log2 fold change” value turned out to be 0.0877.

With RRIRERPPRLPRPRPRPGIIPRP, the “shrunken log2 fold change” value is -0.0249.

For the sequence RRIRYRPPRLPRPRPRPYMTPRP, the “shrunken log2 fold change” value is -0.271.

For the sequence RRIRIRPPRLPRPRPRPSNNPRP, the “shrunken log2 fold change” value was -0.656.

In the case of RRIRYRPPRLPRPRPRPQGIPRP, the “shrunken log2 fold change” value is -0.236.

For the sequence RRIRPRPPRLPRPRPRPNACPRP, the “shrunken log2 fold change” value was determined as 0.195.

On to RRIRTRPPRLPRPRPRPYNTPRP, for which the “shrunken log2 fold change” value is -0.737.

With RRIRGRPPRLPRPRPRPEHLPRP, the “shrunken log2 fold change” value is 0.494.

As for RRIRLRPPRLPRPRPRPSSDPRP, the “shrunken log2 fold change” value stood at 0.128.

For RRIRGRPPRLPRPRPRPVHTPRP, the “shrunken log2 fold change” value amounted to 0.174.
